# Source: patent US20240252614A1 (Pfizer, published 2024)
# B1: hMPV-2 mAb (antibody, V domains shown)
# VH: QVQLQQSGAEVKKPGASVKVSCKASGYTFTSYGISWVRQAPGQGLEWMGWISGYNGNTNYAQTFQGTFTMTTDTSTSTAYMELRRLRSGDTAVYYCARDRYYASGSYNGMDVWGQGTTVTVSS
# VL: QSALTQPPSASGAPGQRVTVSCSGSSSNVGSSSVYWYQQLPGTAPKLLIYRNNQRPSGVPDRFSGSKSGTSASLAISGLRSEDEADYYCAAWDDSLSGWVFGGGTKLTVLG
# notes: human IgG1
# B2: PIV1-8 mAb (antibody, V domains shown)
# VH: QVQLVQSGAEVKKPGSSVKVSCEASGGTFSNYVISWVRQAPGQGLEWMGGIIPVFATAKYAQKFQGRVTIIADQSTNTAYLELSSLRSDDTAVYFCASVDSGGTWWDAFAIWGQGTMVTVSS
# VL: QAVVTQPRSVSGSPGQAVTISCTGTSSDVGGYNYVSWYQHHPGKAPKLIIYDVTKRPSGVPDRFSGSKSGNTASLTISGLQTEYEADYYCCSYAGSYTLVFGGGTKLTVLG
# notes: human IgG1; also called hPIV1-8 mAb; hPIV1-8
# How the values were obtained:
# [1] = target: T1, stabilized hMPV F protein trimer in pre-fusion conformation (human metapneumovirus); assay: BLI, mAb captured, F protein at 50 nM
# T1 construct: also called preF-hMPV; hMPV pre-fusion F protein
# hMPV049 = target: T2, hMPV049 (hMPV A, UniProt Q6WB98 19-102); assay: BLI, 50C stress, vs WT Control
# T2 construct: E146C-T160C
# Protocol: (§1) The OCTET HTX (Sartorius, Gottingen, Germany) instrument was used to evaluate the expression and conformational integrity for each mutant. All measurements were conducted at 30° C. temperature in 96-well black plates (Corning, Corning, NY) with a final volume of 240 μL per well at a constant agitation rate of 1000 RPM.
# (§2) Conformation integrity of hMPV A F protein mutants were evaluated by thermal stress experiments. Crude cell culture supernatants were normalized based on the results of the titer quantitation and then incubated for 1 hour at room temperature and two higher temperatures. […] Anti-Human IgG Fc Capture (AHC) biosensors were first equilibrated in PB before being dipped into more PB to establish the initial baseline. […] The mAb-bound biosensors were then dipped into the thermal stressed cell culture supernatants for 5 minutes. The kinetics analysis was done by OCTET data analysis software (version 12.0, Sartorius) based on curve fitting of the entire associate step.
# hMPV068 = target: T3, hMPV068 (hMPV A, UniProt Q6WB98 19-102); assay: BLI, 50C stress, vs WT Control
# T3 construct: A159V
# Protocol: as §1, §2
# hMPV054 = target: T4, hMPV054 (hMPV A, UniProt Q6WB98 19-102); assay: BLI, 50C stress, vs WT Control
# T4 construct: S132P
# Protocol: as §1, §2
# hMPV044 = target: T5, hMPV044 (hMPV A, UniProt Q6WB98 19-102); assay: BLI, 50C stress, vs WT Control
# T5 construct: T411C-Q434C
# Protocol: as §1, §2
# hMPV067 = target: T6, hMPV067 (hMPV A, UniProt Q6WB98 19-102); assay: BLI, 50C stress, vs WT Control
# T6 construct: S149T
# Protocol: as §1, §2
# hMPV053 = target: T7, hMPV053 (hMPV A, UniProt Q6WB98 19-102); assay: BLI, 50C stress, vs WT Control
# T7 construct: L110P
# Protocol: as §1, §2
# hMPV062 = target: T8, hMPV062 (hMPV A, UniProt Q6WB98 19-102); assay: BLI, 50C stress, vs WT Control
# T8 construct: G121A
# Protocol: as §1, §2
# hMPV058 = target: T9, hMPV058 (hMPV A, UniProt Q6WB98 19-102); assay: BLI, 50C stress, vs WT Control
# T9 construct: L187P
# Protocol: as §1, §2
# hMPV A F WT Control = hMPV A F WT Control (hMPV A, UniProt Q6WB98 19-102); assay: BLI, 50C stress, vs WT Control
# Protocol: as §1, §2
# hMPV071 = target: T10, hMPV071 (hMPV A, UniProt Q6WB98 19-102); assay: BLI, 50C stress, vs WT Control
# T10 construct: T365I
# Protocol: as §1, §2
# hMPV047 = target: T11, hMPV047 (hMPV A, UniProt Q6WB98 19-102); assay: BLI, 50C stress, vs WT Control
# T11 construct: L141C-A159C
# Protocol: as §1, §2
# hMPV052 = target: T12, hMPV052 (hMPV A, UniProt Q6WB98 19-102); assay: BLI, 50C stress, vs WT Control
# T12 construct: L66P
# Protocol: as §1, §2
# hMPV048 = target: T13, hMPV048 (hMPV A, UniProt Q6WB98 19-102); assay: BLI, 50C stress, vs WT Control
# T13 construct: L141C-A161C
# Protocol: as §1, §2
# hMPV075 = target: T14, hMPV075 (hMPV A, UniProt Q6WB98 19-102); assay: BLI, 50C stress, vs WT Control
# T14 construct: L473F
# Protocol: as §1, §2
# hMPV043 = target: T15, hMPV043 (hMPV A, UniProt Q6WB98 19-102); assay: BLI, 50C stress, vs WT Control
# T15 construct: G366C-D454C
# Protocol: as §1, §2
# hMPV046 = target: T16, hMPV046 (hMPV A, UniProt Q6WB98 19-102); assay: BLI, 50C stress, vs WT Control
# T16 construct: A140C-S149C
# Protocol: as §1, §2
# hMPV077 = target: T17, hMPV077 (hMPV A, UniProt Q6WB98 19-102); assay: BLI, 50C stress, vs WT Control
# T17 construct: Q476C, S477C
# Protocol: as §1, §2
# hMPV063 = target: T18, hMPV063 (hMPV A, UniProt Q6WB98 19-102); assay: BLI, 50C stress, vs WT Control
# T18 construct: G239A
# Protocol: as §1, §2
# hMPV061 = target: T19, hMPV061 (hMPV A, UniProt Q6WB98 19-102); assay: BLI, 50C stress, vs WT Control
# T19 construct: G106A
# Protocol: as §1, §2
# [2] = target: T20, stabilized hPIV1 F protein trimer in pre-fusion conformation (human parainfluenza virus 1); assay: BLI, mAb captured, F protein at 50 nM
# T20 construct: also called preF-hPIV1; HPIV1 pre-fusion F protein
# [3] = target: stabilized hPIV3 F protein trimer in pre-fusion conformation (human parainfluenza virus 3); assay: BLI, mAb captured, F protein at 50 nM
# PIV1024 = target: T21, PIV1024 (PIV1); assay: BLI, 50C stress;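 note: binding of thermally stressed PIV1 F mutant supernatant to mAb on AHC biosensors for 5 min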
# T21 construct: A466V
# Protocol: (§3) All measurements were conducted at 30° C. temperature in 96-well black plates (Corning, Corning, NY) with a final volume of 240 μL per well at a constant agitation rate of 1000 RPM.
# (§4) Conformation integrity of PIV1 F protein mutants were evaluated by a thermal stress experiment. Crude cell culture supernatants were normalized based on the results of the titer quantitation and then incubated for 1 hour at room temperature and two higher temperatures. For the initial testing of PIV1 mutants, the two temperatures were 50° C. and 53° C. […] Anti-Human IgG Fc Capture (AHC) biosensors were first equilibrated in PB for before being dipped into more PB to establish the initial baseline. […] The mAb-bound biosensors were then dipped into the thermal stresses cell culture supernatants for 5 minutes.
# PIV1033 = target: T22, PIV1033 (PIV1); assay: BLI, 50C stress;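 note: binding of thermally stressed PIV1 F mutant supernatant to mAb on AHC biosensors for 5 min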
# T22 construct: T198A
# Protocol: as §3, §4
# PIV1031 = target: T23, PIV1031 (PIV1); assay: BLI, 50C stress;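 note: binding of thermally stressed PIV1 F mutant supernatant to mAb on AHC biosensors for 5 min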
# T23 construct: A466L, S473L
# Protocol: as §3, §4
# PIV1026 = target: T24, PIV1026 (PIV1); assay: BLI, 50C stress;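 note: binding of thermally stressed PIV1 F mutant supernatant to mAb on AHC biosensors for 5 min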
# T24 construct: S473V
# Protocol: as §3, §4
# PIV1014 = target: T25, PIV1014 (PIV1); assay: BLI, 50C stress
# T25 construct: Q92C-G134C
# Protocol: as §3, §4
# PIV1027 = target: T26, PIV1027 (PIV1); assay: BLI, 50C stress
# T26 construct: S473L
# Protocol: as §3, §4
# PIV1030 = target: T27, PIV1030 (PIV1); assay: BLI, 50C stress
# T27 construct: A466L, S473A
# Protocol: as §3, §4
# PIV1023 = target: T28, PIV1023 (PIV1); assay: BLI, 50C stress
# T28 construct: A466L
# Protocol: as §3, §4
# PIV1039 = target: T29, PIV1039 (PIV1); assay: BLI, 50C stress
# T29 construct: A128P
# Protocol: as §3, §4
# PIV1028 = target: T30, PIV1028 (PIV1); assay: BLI, 50C stress
# T30 construct: A480L
# Protocol: as §3, §4
# PIV1036 = target: T31, PIV1036 (PIV1); assay: BLI, 50C stress
# T31 construct: G134A
# Protocol: as §3, §4
# PIV1046 = target: T32, PIV1046 (PIV1); assay: BLI, 56C stress
# T32 construct: A466V, S473V
# Protocol: as §3, §4
# PIV1045 = target: T33, PIV1045 (PIV1); assay: BLI, 56C stress
# T33 construct: Q92L, G134A
# Protocol: as §3, §4
# PIV1042 = target: T34, PIV1042 (PIV1); assay: BLI, 56C stress
# T34 construct: Q92A
# Protocol: as §3, §4
# PIV1043 = target: T35, PIV1043 (PIV1); assay: BLI, 56C stress
# T35 construct: Q92A, G134A
# Protocol: as §3, §4
# PIV1044 = target: T36, PIV1044 (PIV1); assay: BLI, 56C stress
# T36 construct: Q92L
# Protocol: as §3, §4
binder,measurement,setting,value
B1,Binding response BLI,[1],1.21 nm
same,Fold change vs WT,hMPV049,1.9 fold
same,Fold change vs WT,hMPV068,1.6 fold
same,Fold change vs WT,hMPV054,1.6 fold
same,Fold change vs WT,hMPV044,2.6 fold
same,Fold change vs WT,hMPV067,2.3 fold
same,Fold change vs WT,hMPV053,2 fold
same,Fold change vs WT,hMPV062,1.6 fold
same,Fold change vs WT,hMPV058,1.7 fold
same,Fold change vs WT,hMPV A F WT Control,1 fold
same,Fold change vs WT,hMPV071,2.4 fold
same,Fold change vs WT,hMPV047,-0.1 fold
same,Fold change vs WT,hMPV052,2.2 fold
same,Fold change vs WT,hMPV048,1.5 fold
same,Fold change vs WT,hMPV075,2.3 fold
same,Fold change vs WT,hMPV043,2 fold
same,Fold change vs WT,hMPV046,1.7 fold
same,Fold change vs WT,hMPV077,2.2 fold
same,Fold change vs WT,hMPV063,2.4 fold
same,Fold change vs WT,hMPV061,2 fold
B2,Binding response BLI,[2],1.96 nm
same,Binding response BLI,[3],-0.052 nm
same,Binding response BLI,[1],-0.051 nm
same,Response Shift,PIV1024,0.022 nm
same,Response Shift,PIV1033,-0.027 nm
same,Response Shift,PIV1031,0.72 nm
same,Response Shift,PIV1026,-0.022 nm
same,Response Shift,PIV1014,0.011 nm
same,Response Shift,PIV1027,-0.022 nm
same,Response Shift,PIV1030,-0.031 nm
same,Response Shift,PIV1023,0.018 nm
same,Response Shift,PIV1039,-0.039 nm
same,Response Shift,PIV1028,-0.018 nm
same,Response Shift,PIV1036,0.007 nm
same,Response Shift,PIV1046,-0.091 nm
same,Response Shift,PIV1045,-0.095 nm
same,Response Shift,PIV1042,-0.103 nm
same,Response Shift,PIV1043,-0.102 nm
same,Response Shift,PIV1044,-0.122 nm
